Data set [1] addresses T1, ATF6 (SEQ ID NO: 18) with c-Myc-tag ligated at the N-terminal.
T1 chain: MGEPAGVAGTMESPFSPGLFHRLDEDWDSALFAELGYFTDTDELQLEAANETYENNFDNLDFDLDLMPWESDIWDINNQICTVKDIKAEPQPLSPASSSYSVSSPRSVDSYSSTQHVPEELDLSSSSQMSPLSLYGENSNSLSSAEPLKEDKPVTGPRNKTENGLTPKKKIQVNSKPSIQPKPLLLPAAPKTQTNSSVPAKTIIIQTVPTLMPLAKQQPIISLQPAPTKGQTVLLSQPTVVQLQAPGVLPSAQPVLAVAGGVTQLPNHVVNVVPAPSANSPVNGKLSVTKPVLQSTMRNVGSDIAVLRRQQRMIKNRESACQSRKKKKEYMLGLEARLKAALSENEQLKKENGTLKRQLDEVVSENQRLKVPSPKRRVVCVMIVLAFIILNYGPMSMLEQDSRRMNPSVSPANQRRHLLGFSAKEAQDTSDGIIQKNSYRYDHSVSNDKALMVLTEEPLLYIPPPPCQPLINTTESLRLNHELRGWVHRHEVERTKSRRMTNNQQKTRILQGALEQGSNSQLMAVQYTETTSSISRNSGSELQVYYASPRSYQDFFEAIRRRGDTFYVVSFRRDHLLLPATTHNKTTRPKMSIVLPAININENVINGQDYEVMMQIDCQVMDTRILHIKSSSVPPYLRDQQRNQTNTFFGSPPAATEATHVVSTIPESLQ

The target in data set [2] is T2, CREBL1 (SEQ ID NO: 16) with c-Myc-tag ligated at the N-terminal.
T2 chain: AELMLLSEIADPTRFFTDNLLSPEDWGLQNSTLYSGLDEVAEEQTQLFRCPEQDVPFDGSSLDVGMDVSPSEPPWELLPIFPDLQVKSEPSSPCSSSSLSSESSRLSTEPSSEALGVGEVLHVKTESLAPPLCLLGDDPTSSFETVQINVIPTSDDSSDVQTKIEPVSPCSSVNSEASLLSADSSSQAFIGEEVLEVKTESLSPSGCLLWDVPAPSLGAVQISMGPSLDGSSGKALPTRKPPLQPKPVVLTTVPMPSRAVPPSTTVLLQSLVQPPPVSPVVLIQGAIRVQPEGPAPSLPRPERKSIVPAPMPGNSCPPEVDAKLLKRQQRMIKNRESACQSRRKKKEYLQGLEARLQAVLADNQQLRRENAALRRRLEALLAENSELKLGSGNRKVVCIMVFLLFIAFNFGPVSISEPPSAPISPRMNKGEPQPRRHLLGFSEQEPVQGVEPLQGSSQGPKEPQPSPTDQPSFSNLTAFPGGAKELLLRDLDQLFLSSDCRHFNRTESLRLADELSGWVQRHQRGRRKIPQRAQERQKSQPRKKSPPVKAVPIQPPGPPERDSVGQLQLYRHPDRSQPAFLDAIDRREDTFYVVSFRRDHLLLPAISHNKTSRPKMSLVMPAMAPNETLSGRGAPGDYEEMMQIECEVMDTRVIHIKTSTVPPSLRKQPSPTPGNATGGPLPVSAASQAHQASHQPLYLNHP

The target in data set [3] is T3, HNF-4α (SEQ ID NO: 35) with N-terminal tag, as used in Example 6.
T3 chain: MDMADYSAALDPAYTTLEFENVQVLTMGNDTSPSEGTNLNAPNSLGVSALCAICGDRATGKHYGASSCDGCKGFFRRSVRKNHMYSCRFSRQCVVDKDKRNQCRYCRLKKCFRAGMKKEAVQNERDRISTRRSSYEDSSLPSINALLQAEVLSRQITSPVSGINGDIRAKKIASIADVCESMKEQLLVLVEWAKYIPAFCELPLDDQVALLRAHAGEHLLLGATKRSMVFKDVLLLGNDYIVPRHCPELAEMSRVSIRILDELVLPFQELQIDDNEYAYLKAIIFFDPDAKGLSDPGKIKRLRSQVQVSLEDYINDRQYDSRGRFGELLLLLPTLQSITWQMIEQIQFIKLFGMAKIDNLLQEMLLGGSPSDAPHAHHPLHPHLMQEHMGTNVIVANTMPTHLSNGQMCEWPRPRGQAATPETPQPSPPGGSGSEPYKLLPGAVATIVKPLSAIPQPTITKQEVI

Data set [4] has as its target T4, biotinylated CREBL1 (N-terminal tagged-CREBL1 with biotinylated lysine residue within the protein).
T4 chain: T2 chain

Data set [5] concerns casein. As to the kind of experiment: Casein zymography and protease assay with casein sodium. To be noted: HtrA2 types expressed in a cultured cell. It counts as biochemical. The protocol:
Determination of the activity of mature HtrA2 and mature HtrA2 (S306A) was carried out with casein zymography and with a protease assay with casein sodium. Casein zymography was carried out according to the protocol (Invitrogen). More concretely, mature HtrA2 and mature HtrA2 (S306A) were mixed under non-reductive condition with equivalent volume of 2×SDS sample buffer, left to stand at room temperature for 10 min, followed by separation with 4-16% zymogram (Blue casein) gel (Zymogram Gel, Invitrogen). After completion of electrophoresis, they were renatured with 2.5% Triton X-100, and then subjected to a degradation reaction of casein in the developing buffer at 37= C. for overnight.
Meanwhile, a protease assay using casein sodium as an substrate was carried out in such that mature HtrA2 or mature HtrA2 (S306A) was mixed with casein sodium in a reaction buffer (150 mM NaCl, 50 mM Tris-HCl (pH 7.5)) so as to the concentration of the former might become 200 μg/ml and the concentration of the latter might become 400 μg/ml, and incubated at 37° C. for reactions. A portion of the reaction solution was sampled at three hours and overnight after initiation of the reaction, mixed with equivalent volume of 2×SDS sample buffer followed by boiling, and then subjected to SDS-PAGE. After that, the degradation of casein sodium was detected by Coomassie Brilliant Blue (CBB) staining.
The enzyme activity of the various types of HtrA2 each of which was expressed in a cultured cell was determined by the protease assay using casein sodium as a substrate (see Example 2).

In data set [6] the target is T5, CREBL1 (Homo sapiens, UniProt Q99941).
T5 construct: expressed in transfected cells; host or cells: HEK293T
T5 sequence (Q99941 1-703): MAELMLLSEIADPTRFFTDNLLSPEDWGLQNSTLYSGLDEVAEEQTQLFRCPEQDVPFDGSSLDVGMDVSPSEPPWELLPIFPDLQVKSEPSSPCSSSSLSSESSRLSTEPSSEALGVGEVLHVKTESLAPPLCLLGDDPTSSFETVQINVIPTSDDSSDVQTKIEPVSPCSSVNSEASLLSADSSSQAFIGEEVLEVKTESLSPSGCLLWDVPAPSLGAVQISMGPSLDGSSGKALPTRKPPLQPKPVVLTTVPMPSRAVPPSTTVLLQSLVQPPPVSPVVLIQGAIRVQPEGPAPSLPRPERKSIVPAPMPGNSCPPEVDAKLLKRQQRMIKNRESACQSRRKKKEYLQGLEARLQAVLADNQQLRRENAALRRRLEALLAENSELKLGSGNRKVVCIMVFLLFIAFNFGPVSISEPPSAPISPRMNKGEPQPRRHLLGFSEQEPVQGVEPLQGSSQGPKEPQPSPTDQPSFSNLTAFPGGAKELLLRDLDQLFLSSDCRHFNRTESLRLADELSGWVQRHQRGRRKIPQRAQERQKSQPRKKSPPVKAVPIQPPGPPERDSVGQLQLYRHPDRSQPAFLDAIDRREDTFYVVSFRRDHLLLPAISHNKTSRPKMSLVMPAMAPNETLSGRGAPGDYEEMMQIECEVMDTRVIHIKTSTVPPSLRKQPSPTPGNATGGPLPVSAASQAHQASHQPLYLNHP
In words: Intracellular protease assay, co-expression with CREBL1 in HEK293T cells. It counts as cell-based. To be noted: 48 hours. The method, then: (§1) HEK293T cells were cultured to 1.5×10^5 cells/10 cm Dish. Next day, the expression plasmid of CREBL1 or ATF6 was transfected into HEK293T cells together with the expression plasmid of various types of HtrA2 using FuGene 6 (Roche). Each of the expression plasmid of various HtrA2 at 1 μg/Dish was added in combination with CREBL1 expression plasmid or ATF6 expression plasmid at 1 μg/Dish. Forty eight hours later, the cells in which the various types of HtrA2 were co-expressed with CREBL1 or ATF6 were added with 200 μl of lysis buffer B and an equivalent volume of 2×SDS sample buffer (containing 0.1% β-mercaptoethanol), and then subjected to sonication followed by boiling to use as a test sample.
(§2) Expression of CREBL1 and ATF6 and the degradation of these proteins were detected by western blotting using 10 μl of the test sample thus obtained. Anti-c-Myc (9E10) antibody was used as a primary antibody for detection, and horseradish peroxidase (HRP) conjugated anti-mouse IgG antibody (Cell Signaling) was used as a secondary antibody. Detection was carried out using ECL Western Blotting Detection System.

Data set [7] concerns the target T6, ATF6 (Homo sapiens, UniProt P18850).
T6 construct: expressed in transfected cells; host or cells: HEK293T
T6 sequence (P18850 1-670): T1 chain
As to the kind of experiment: Intracellular protease assay, co-expression with ATF6 in HEK293T cells. It counts as cell-based. The settings on record: 48 hours. The method, then:
as §1, §2

Data set [8] addresses T7, HNF-4α (Homo sapiens, UniProt P41235).
T7 construct: expressed in transfected cells; host or cells: HEK293T
T7 sequence (P41235 10-474): T3 chain
In words: Intracellular protease assay, co-expression with HNF-4α in HEK293T cells. To be noted: 48 hours. It counts as cell-based. The protocol: as §1, with “cells/6” for “cells/10”, “HNF-4α” for “CREBL1 or ATF6”, “HNF-4α” for “CREBL1 expression plasmid or ATF6”
Expression of HNF-4α and the degradation of HNF-4α were detected by western blotting using 10 μl of the test sample thus obtained. Anti-FLAG antibody (Sigma) was used as a primary antibody for detection, and horseradish peroxidase (HRP) labeled anti-mouse IgG antibody (Cell Signaling) was used as a secondary antibody. Detection was carried out using ECL Western Blotting Detection System.

The values that follow come from patent US20070196354A1, “Method of treating diabetes by inhibiting degradation of at least one of crebl1, atf6, and hnf-4 alpha by htra” (priority 2003, published 2007).

Where a chain is given by its changes, count along the chain named. Numbers in names are those of the source.

B1: mature HtrA2 (SEQ ID NO: 4) with histidine (His)-tag ligated at the C-terminal (protein)
chain: MAVPSPPPASPRSQYNFIADVVEKTAPAVVYIEILDRHPFLGREVPISNGSGFVVAADGLIVTNAHVVADRRRVRVRLLSGDTYEAVVTAVDPVADIATLRIQTKEPLPTLPLGRSADVRQGEFVVAMGSPFALQNTITSGIVSSAQRPARDLGLPQTNVEYIQTDAAIDFGNSGGPLVNLDGEVIGVNTMKVTAGISFAIPSDRLREFLHRGEKKNSSSGISGSQRRYIGVMMLTLSPSILAELQLREPSFPDVQHGVLIHKVILGSPAHRAGLRPGDVILAIGEQMVQNAEDVYEAVRTQSQLAVQIRRGRETLTLYVTPEVTE
For B1, in data set [1], the “in vitro protease assay; western blotting of ATF6 band” value is “the band of ATF6 was reduced significantly after the reaction of active HtrA2 with ATF6 for four hours (4 h) or overnight (O/N)”. Further, in data set [2], the “in vitro protease assay; western blotting of CREBL1 band” value is “the band of CREBL1 was reduced significantly after the reaction of active HtrA2 with CREBL1 for overnight (O/N)”. Moreover, the “in vitro protease assay; western blotting of HNF-4α band” value in data set [3] is recorded as “the band of HNF-4α was reduced significantly after the reaction of active HtrA2 with HNF-4α for overnight (O/N)”. Besides, the “in vitro protease assay; degradation pattern of biotinylated CREBL1 by western blotting (streptavidin HRP)” value in data set [4] was “remarkable reduction of the band of biotinylated CREBL1 was observed, and further, the band that was supposed to be a degradation product of CREBL1 was detected around 50 kDa”.

B2: mature HtrA2 (S306A) (SEQ ID NO: 6) with histidine (His)-tag ligated at the C-terminal (protein)
chain: B1 chain with S174A
On to B2, for which the “in vitro protease assay; western blotting of ATF6 band” value in data set [1] is “the degradation of CREBL1 and ATF6 by inactive HtrA2 (mature HtrA2 (S306A)) was not observed”. The “in vitro protease assay; western blotting of CREBL1 band” value in data set [2] is “the degradation of CREBL1 and ATF6 by inactive HtrA2 (mature HtrA2 (S306A)) was not observed”. The “in vitro protease assay; western blotting of HNF-4α band” value in data set [3] is “the degradation of HNF-4α by inactive HtrA2 (mature HtrA2 (S306A)) was not observed”. Also, in data set [4], the “in vitro protease assay; degradation pattern of biotinylated CREBL1 by western blotting (streptavidin HRP)” value is “the degradation of CREBL1 by inactive HtrA2 (mature HtrA2 (S306A)) was not observed, and the band around 50 kDa as above was not detected”.

B3: mature HtrA2 (S306A, GVPS): SEQ ID NO: 14; mature HtrA2 (S306A) with N-terminal alanine substituted with glycine (protein)
chain: B1 chain with A2G, S174A
modifications: Polypeptide consisting of the same amino acid sequence of SEQ ID NO6 wherein the 2nd amino acid residue is substituted by Gly; mature HtrA2(S306A, GVPS)
notes: mature HtrA2 (S306A) with N-terminal alanine substituted with glycine
In the case of B3, the “protease activity using casein sodium as a substrate” value in data set [5] is “inactive type without exhibiting protease activity”. Also, the “degradation of CREBL1 in cells (band by western blotting)” value in data set [6] is listed as “the reduction of the band of CREBL1 was not observed”. Besides, in data set [7], the “degradation of ATF6 in cells (band by western blotting)” value is given as “the reduction of the band of ATF6 was not observed”. Also, in data set [8], the “degradation of HNF-4α in cells (band by western blotting)” value is “the reduction of the band of HNF-4α was not observed”.
